# From patent publication US20240124560A1
# Assays:
# Assay in all cases: cell-based or functional assay
# [1] = target: HIV-1 Env of NAC_89.6 (HIV-1)
# [2] = target: HIV-1 Env of NAC_BG505 (HIV-1)
# [3] = target: HIV-1 Env of NAC_IAVIC22 (HIV-1)
# [4] = target: HIV-1 Env of NAC_JRCSF (HIV-1) (UniProt P20871)
# [5] = target: HIV-1 Env of NAC_YU2 (HIV-1) (UniProt P35961)
# [6] = target: HIV-1 Env of NIH-001_6535.3 (HIV-1)
# [7] = target: HIV-1 Env of NIH-007_CAAN5342.A2 (HIV-1)
# [8] = target: HIV-1 Env of NIH-021_ZM214M.PL15 (HIV-1)
# [9] = target: HIV-1 Env of NIH-030_HIV-0013095.2.11 (HIV-1)
# [10] = target: HIV-1 Env of NIH-031_HIV-16055.2.3 (HIV-1)
# [11] = target: HIV-1 Env of NIH-040_Ce703010054 2A2 (HIV-1)
# [12] = target: HIV-1 Env of NIH-042_ZM246F.D5 (HIV-1)
# [13] = target: HIV-1 Env of NIH-045_7030102001E5(Rev.) (HIV-1)
# [14] = target: HIV-1 Env of NIH-048_CNE19 (HIV-1)
# [15] = target: HIV-1 Env of NIH-049_CNE20 (HIV-1)
# [16] = target: HIV-1 Env of NIH-076_CNE5 (HIV-1)
# [17] = target: HIV-1 Env of NIH-078_BJOX015000.11.5 (HIV-1)
# [18] = target: HIV-1 Env of NIH-079_BJOX010000.06.2 (HIV-1)
# [19] = target: HIV-1 Env of NIH-094_3817.v2.c59 (HIV-1)
# [20] = target: HIV-1 Env of NIH-117_T278.5 (HIV-1)
# [21] = target: HIV-1 Env of isolate NIH-082_X1193 c1 (HIV-1)
# [22] = target: HIV-1 Env of isolate NIH-083_P0402 c2 11 (HIV-1)
# [23] = target: HIV-1 Env of isolate NIH-091_231965.c01 (HIV-1)
# [24] = target: HIV-1 Env of pseudovirus NAC_89.6 (HIV-1)
# [25] = target: HIV-1 Env of pseudovirus NAC_92TH021 (HIV-1)
# [26] = target: HIV-1 Env of pseudovirus NAC_BG505 (HIV-1)
# [27] = target: HIV-1 Env of pseudovirus NAC_DH12 (HIV-1)
# [28] = target: HIV-1 Env of pseudovirus NAC_IAVIC22 (HIV-1)
# [29] = target: HIV-1 Env of pseudovirus NAC_JRCSF (HIV-1) (UniProt P20871)
# [30] = target: HIV-1 Env of pseudovirus NAC_TRJO.58 (HIV-1)
# [31] = target: HIV-1 Env of pseudovirus NIH-002_QHO692 .42 (HIV-1)
# [32] = target: HIV-1 Env of pseudovirus NIH-013_6240.08.TA5.4622 (HIV-1)
# [33] = target: HIV-1 Env of pseudovirus NIH-018_Du172.17 (HIV-1)
# [34] = target: HIV-1 Env of pseudovirus NIH-019_Du422.1 (HIV-1)
# [35] = target: HIV-1 Env of pseudovirus NIH-026_ZM135M.PL10a (HIV-1)
# [36] = target: HIV-1 Env of pseudovirus NIH-029_HIV-001428.2.42 (HIV-1)
# [37] = target: HIV-1 Env of pseudovirus NIH-034_Ce0393 C3 (HIV-1)
# [38] = target: HIV-1 Env of pseudovirus NIH-036_Ce2010 F5 (HIV-1)
# [39] = target: HIV-1 Env of pseudovirus NIH-041_BF1266.431a (HIV-1)
# [40] = target: HIV-1 Env of pseudovirus NIH-047_Ce704809221 1B3 (HIV-1)
# [41] = target: HIV-1 Env of pseudovirus NIH-055_CNE58 (HIV-1)
# [42] = target: HIV-1 Env of pseudovirus NIH-060_Q769ENVd22 (HIV-1)
# [43] = target: HIV-1 Env of pseudovirus NIH-075_CNE8 (HIV-1)
# [44] = target: HIV-1 Env of pseudovirus NIH-095_6480.v4.c25 (HIV-1)
# [45] = target: HIV-1 Env of pseudovirus NIH-096_6952.v1.c20 (HIV-1)
# [46] = target: envelope protein of control pseudovirus NAC_VSV
substance,measurement,setting,value
4E10 (antibody),IC80 neutralization,[1],10.9 µg/mL
same,IC80 neutralization,[2],4.88 µg/mL
same,IC80 neutralization,[3],6.11 µg/mL
same,IC80 neutralization,[4],3.92 µg/mL
same,IC80 neutralization,[5],> 50 µg/mL
same,IC80 neutralization,[6],3.29 µg/mL
same,IC80 neutralization,[7],12.1 µg/mL
same,IC80 neutralization,[8],21.2 µg/mL
same,IC80 neutralization,[9],0.258 µg/mL
same,IC80 neutralization,[10],6.57 µg/mL
same,IC80 neutralization,[11],12.5 µg/mL
same,IC80 neutralization,[12],6.7 µg/mL
same,IC80 neutralization,[13],15.7 µg/mL
same,IC80 neutralization,[14],1.43 µg/mL
same,IC80 neutralization,[15],1.58 µg/mL
same,IC80 neutralization,[16],5.9 µg/mL
same,IC80 neutralization,[17],0.647 µg/mL
same,IC80 neutralization,[18],1.73 µg/mL
same,IC80 neutralization,[19],2.12 µg/mL
same,IC80 neutralization,[20],6.03 µg/mL
same,"IC80 (µg/ml), TZM-bl pseudovirus neutralization",[21],1.43 µg/mL
same,"IC80 (µg/ml), TZM-bl pseudovirus neutralization",[22],0.363 µg/mL
same,"IC80 (µg/ml), TZM-bl pseudovirus neutralization",[23],> 50 µg/mL
same,neutralization IC50,[24],2.77 µg/mL
same,neutralization IC50,[25],0.348 µg/mL
same,neutralization IC50,[26],1.15 µg/mL
same,neutralization IC50,[27],1.17 µg/mL
same,neutralization IC50,[28],1.21 µg/mL
same,neutralization IC50,[29],0.823 µg/mL
same,neutralization IC50,[30],2.97 µg/mL
same,neutralization IC50,[31],6.19 µg/mL
same,neutralization IC50,[32],9.78 µg/mL
same,neutralization IC50,[33],0.102 µg/mL
same,neutralization IC50,[34],1.42 µg/mL
same,neutralization IC50,[35],0.133 µg/mL
same,neutralization IC50,[36],5.54 µg/mL
same,neutralization IC50,[37],0.606 µg/mL
same,neutralization IC50,[38],14.4 µg/mL
same,neutralization IC50,[39],2.47 µg/mL
same,neutralization IC50,[40],0.134 µg/mL
same,neutralization IC50,[41],0.563 µg/mL
same,neutralization IC50,[42],1.61 µg/mL
same,neutralization IC50,[43],0.087 µg/mL
same,neutralization IC50,[44],0.561 µg/mL
same,neutralization IC50,[45],0.721 µg/mL
same,"IC50 (µg/ml), TZM-bl cell neutralization assay, control pseudovirus",[46],> 50 µg/mL
same,"IC80 (µg/ml), TZM-bl pseudovirus neutralization",[46],> 50 µg/mL
PGZL1 (antibody),IC80 neutralization,[1],> 50 µg/mL
same,IC80 neutralization,[2],> 50 µg/mL
same,IC80 neutralization,[3],> 50 µg/mL
same,IC80 neutralization,[4],> 50 µg/mL
same,IC80 neutralization,[5],> 50 µg/mL
same,IC80 neutralization,[6],4.69 µg/mL
same,IC80 neutralization,[7],> 50 µg/mL
same,IC80 neutralization,[8],> 50 µg/mL
same,IC80 neutralization,[9],0.113 µg/mL
same,IC80 neutralization,[10],42.6 µg/mL
same,IC80 neutralization,[11],> 50 µg/mL
same,IC80 neutralization,[12],> 50 µg/mL
same,IC80 neutralization,[13],> 50 µg/mL
same,IC80 neutralization,[14],12.1 µg/mL
same,IC80 neutralization,[15],9.5 µg/mL
same,IC80 neutralization,[16],> 50 µg/mL
same,IC80 neutralization,[17],10.5 µg/mL
same,IC80 neutralization,[18],6.6 µg/mL
same,IC80 neutralization,[19],> 50 µg/mL
same,IC80 neutralization,[20],> 50 µg/mL
same,"IC80 (µg/ml), TZM-bl pseudovirus neutralization",[21],21.3 µg/mL
same,"IC80 (µg/ml), TZM-bl pseudovirus neutralization",[22],32.3 µg/mL
same,"IC80 (µg/ml), TZM-bl pseudovirus neutralization",[23],> 50 µg/mL
same,neutralization IC50,[24],25.3 µg/mL
same,neutralization IC50,[25],2.12 µg/mL
same,neutralization IC50,[26],16.7 µg/mL
same,neutralization IC50,[27],4.71 µg/mL
same,neutralization IC50,[28],15.2 µg/mL
same,neutralization IC50,[29],13.4 µg/mL
same,neutralization IC50,[30],> 50 µg/mL
same,neutralization IC50,[31],42 µg/mL
same,neutralization IC50,[32],35.8 µg/mL
same,neutralization IC50,[33],0.424 µg/mL
same,neutralization IC50,[34],7.51 µg/mL
same,neutralization IC50,[35],0.296 µg/mL
same,neutralization IC50,[36],> 50 µg/mL
same,neutralization IC50,[37],13.5 µg/mL
same,neutralization IC50,[38],> 50 µg/mL
same,neutralization IC50,[39],48.8 µg/mL
same,neutralization IC50,[40],0.738 µg/mL
same,neutralization IC50,[41],3.55 µg/mL
same,neutralization IC50,[42],20.2 µg/mL
same,neutralization IC50,[43],0.247 µg/mL
same,neutralization IC50,[44],15 µg/mL
same,neutralization IC50,[45],0.89 µg/mL
same,"IC50 (µg/ml), TZM-bl cell neutralization assay, control pseudovirus",[46],> 50 µg/mL
same,"IC80 (µg/ml), TZM-bl pseudovirus neutralization",[46],> 50 µg/mL
VRC01 (antibody),IC80 neutralization,[1],3.3 µg/mL
same,IC80 neutralization,[2],0.213 µg/mL
same,IC80 neutralization,[3],1.37 µg/mL
same,IC80 neutralization,[4],0.69 µg/mL
same,IC80 neutralization,[5],0.69 µg/mL
same,IC80 neutralization,[6],3.7 µg/mL
same,IC80 neutralization,[7],2.79 µg/mL
same,IC80 neutralization,[8],2.42 µg/mL
same,IC80 neutralization,[9],0.058 µg/mL
same,IC80 neutralization,[10],0.206 µg/mL
same,IC80 neutralization,[11],0.595 µg/mL
same,IC80 neutralization,[12],43.7 µg/mL
same,IC80 neutralization,[13],1.49 µg/mL
same,IC80 neutralization,[14],0.512 µg/mL
same,IC80 neutralization,[15],20.2 µg/mL
same,IC80 neutralization,[16],0.238 µg/mL
same,IC80 neutralization,[17],0.242 µg/mL
same,IC80 neutralization,[18],7.79 µg/mL
same,IC80 neutralization,[19],> 50 µg/mL
same,IC80 neutralization,[20],> 50 µg/mL
same,"IC80 (µg/ml), TZM-bl pseudovirus neutralization",[21],0.408 µg/mL
same,"IC80 (µg/ml), TZM-bl pseudovirus neutralization",[22],0.164 µg/mL
same,"IC80 (µg/ml), TZM-bl pseudovirus neutralization",[23],0.743 µg/mL
same,neutralization IC50,[24],0.807 µg/mL
same,neutralization IC50,[25],0.324 µg/mL
same,neutralization IC50,[26],0.056 µg/mL
same,neutralization IC50,[27],0.227 µg/mL
same,neutralization IC50,[28],0.348 µg/mL
same,neutralization IC50,[29],0.172 µg/mL
same,neutralization IC50,[30],0.057 µg/mL
same,neutralization IC50,[31],1.96 µg/mL
same,neutralization IC50,[32],0.604 µg/mL
same,neutralization IC50,[33],> 50 µg/mL
same,neutralization IC50,[34],> 50 µg/mL
same,neutralization IC50,[35],0.102 µg/mL
same,neutralization IC50,[36],0.019 µg/mL
same,neutralization IC50,[37],0.37 µg/mL
same,neutralization IC50,[38],0.153 µg/mL
same,neutralization IC50,[39],0.028 µg/mL
same,neutralization IC50,[40],0.32 µg/mL
same,neutralization IC50,[41],0.083 µg/mL
same,neutralization IC50,[42],0.025 µg/mL
same,neutralization IC50,[43],0.126 µg/mL
same,neutralization IC50,[44],0.014 µg/mL
same,neutralization IC50,[45],0.025 µg/mL
same,"IC50 (µg/ml), TZM-bl cell neutralization assay, control pseudovirus",[46],> 50 µg/mL
same,"IC80 (µg/ml), TZM-bl pseudovirus neutralization",[46],> 50 µg/mL
